The source of these data is publication doi:10.1101/2023.01.31.526478.

This assay addresses SNAP-SPIN1 (human) (UniProt Q9Y657). Briefly: FRET or BRET. (BRET reads energy transfer from a luciferase to a nearby fluorophore.)
Chain of UniProt Q9Y657 (Q9Y657 whole entry): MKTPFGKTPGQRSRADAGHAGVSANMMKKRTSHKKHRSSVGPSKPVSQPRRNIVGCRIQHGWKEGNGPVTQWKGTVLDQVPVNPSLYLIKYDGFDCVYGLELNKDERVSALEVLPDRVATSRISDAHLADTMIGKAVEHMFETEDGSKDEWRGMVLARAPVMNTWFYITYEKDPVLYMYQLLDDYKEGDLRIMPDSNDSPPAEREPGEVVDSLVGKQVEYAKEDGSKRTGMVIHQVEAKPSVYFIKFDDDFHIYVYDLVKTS

The substance “Halo-WDR76 (from UniProt Q9H967 1-626) (natural protein)” had an FRET efficiency of 2%.
